Measurements: US10801027B2, “Inhibitors of SRSF1 to treat neurodegenerative disorders” (University of Sheffield, priority 2016, dated 2020)

T1: NXF1 (Mus musculus, UniProt Q99JX7)
T1 construct: endogenous in cells; host or cells: Neuro-2a (N2A)
T1 sequence (Q99JX7 1-618): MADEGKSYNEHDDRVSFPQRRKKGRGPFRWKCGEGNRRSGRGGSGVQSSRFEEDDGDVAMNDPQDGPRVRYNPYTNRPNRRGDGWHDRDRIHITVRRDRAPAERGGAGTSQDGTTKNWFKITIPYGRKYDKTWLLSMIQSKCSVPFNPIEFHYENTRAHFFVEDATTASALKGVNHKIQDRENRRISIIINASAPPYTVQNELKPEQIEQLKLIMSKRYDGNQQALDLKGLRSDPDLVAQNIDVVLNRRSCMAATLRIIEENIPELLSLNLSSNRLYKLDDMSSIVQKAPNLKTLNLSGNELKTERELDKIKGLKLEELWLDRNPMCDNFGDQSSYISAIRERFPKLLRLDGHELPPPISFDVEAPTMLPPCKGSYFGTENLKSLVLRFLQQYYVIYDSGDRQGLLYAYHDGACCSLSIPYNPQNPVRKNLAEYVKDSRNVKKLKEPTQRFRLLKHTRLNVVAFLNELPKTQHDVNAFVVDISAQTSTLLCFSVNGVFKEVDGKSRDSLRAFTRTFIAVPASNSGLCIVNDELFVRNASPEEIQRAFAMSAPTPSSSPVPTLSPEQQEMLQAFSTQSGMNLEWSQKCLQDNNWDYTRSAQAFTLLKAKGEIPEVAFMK

B1: SRSF1-m2: FLAG-tagged SRSF1 11-196 double R117,118A mutant (protein)
chain: AGNNDCRIYVGNLPPDIRTKDIEDVFYKYGAIRDIDLKNRRGGPPFAFVEFEDPRDAEDAVYGRDGYDYDGYRLRVEFPRSGRGTGRGGGGGGGGGAPRGRYGPPSAASENRVVVSGLPPSGSWQDLKDHMREAGDVCYADVYRDGTGVVEFVRKEDMTYAVRKLDNTKFRSHEGETAYIRVKVDG
modifications: left off: small tags and cut ends
notes: FLAG-tagged SRSF1 11-196 double R117,118A mutant
B2: SRSF1 11-196 wild type: FLAG-tagged SRSF1 amino-acids 11-196 wild type (protein)
chain: AGNNDCRIYVGNLPPDIRTKDIEDVFYKYGAIRDIDLKNRRGGPPFAFVEFEDPRDAEDAVYGRDGYDYDGYRLRVEFPRSGRGTGRGGGGGGGGGAPRGRYGPPSRRSENRVVVSGLPPSGSWQDLKDHMREAGDVCYADVYRDGTGVVEFVRKEDMTYAVRKLDNTKFRSHEGETAYIRVKVDG
modifications: left off: small tags and cut ends
notes: FLAG-tagged SRSF1 amino-acids 11-196 wild type

How the values were obtained:
[1] = MND patients; cited from earlier work
[2] = test system: poly-Gly-Pro and poly-Gly-Ala DPRs; test: Western blot of RAN-translated DPRs in N2A cells; format: cell-based, mouse; settings: G4C2×38 or C4G2×39 constructs, 72 h
Experimental: Neuro-2a (ATCC) cells were cultured in Dulbecco's Modified Eagle Medium (Sigma) supplemented with 10% fetal bovine serum [FBS] (Gibco), 5 U/ml Penstrep (Lonza) and 5 mM sodium pyruvate. Cells were maintained in a […] incubator with 5% CO2. 75,000 Neuro-2a cells were split into each well of 24-well plates and transfected for 72 h with 500 ng pcDNA6.2-GW/EmGFP-Control miR RNAi (ThermoFisher) or pcDNA6.2-GW/EmGFP-mouse SRSF1 miR1+2 RNAi and 200 ng pcDNA 3.1/RAN-G4C2×38-sense or RAN-C4G2×39-antisense using 3 μg PEI/1 μg DNA and one tenth medium volume OptiMEM (ThermoFisher).
HEK cells were transfected for 72 h with 650 ng pcDNA6.2-GW/EmGFP-Control miRNA, pCDNA6.2-GW/EmGFP-human SRSF1 miR1+2 RNAi or LV-EmGFP-human SRSF1 miR1+2 RNAi constructs and 50 ng p3×FLAG/human-SRSF1 using 3.5 μg PEI/ml media and one tenth medium volume of OptiMEM. Neuro-2a cells were split into each well of 24-well plates (75,000 cells/well) and transfected for 72 h with 350 ng pcDNA6.2-GW/EmGFP-Control miR RNAi (ThermoFisher), pcDNA6.2-GW/EmGFP-mouse SRSF1 miR1+2 RNAi, p3×FLAG, p3×FLAG/SRSF1 (11-196), p3×FLAG/SRSF1 (11-196)-m2 or p3×FLAG/SRSF1 (11-196)-m4 and 350 ng pcDNA 3.1/RAN-G4C2×38-sense or RAN-C4G2×39-antisense using 3 μg PEI/1 μg DNA and one tenth medium volume OptiMEM.
Proteins were extracted from HEK or Neuro-2a cells 72 hours after transfection. […] Protein extracts were quantified using Bradford Reagent (BioRAD), resolved by SDS-PAGE, electroblotted onto nitrocellulose membrane and probed using the relevant primary antibody. […] (kindly received from Prof Stuart Pickering Brown) primary antibodies were detected with horseradish peroxidase (HRP)-conjugated rabbit secondary antibody [1:5000 dilution] […] (kindly provided from Prof Dieter Edbauer) primary antibodies were detected using HRP-conjugated mouse secondary antibody [1:5000 dilution] […] For dot blot analysis, 50 μg total protein extracts prepared in ice-cold lysis buffer were loaded onto a nitrocellulose membrane using a microfiltration apparatus (Biorad) and analysed by western immunoblotting as previously described.

NXF1 = target: T1, NXF1; test: Anti-FLAG co-immunoprecipitation of endogenous NXF1 in N2A cells; format: binding; settings: FLAG-tagged protein, 48 h
Experimental: Cells were split into 1×10 cm plates/treatment (1.5×10^6 cells/plate) and transfected with 15 μg p3×FLAG, p3×FLAG/SRSF1 (11-196), p3×FLAG/SRSF1 (11-196)-m2 or p3×FLAG/SRSF1(11-196)-m4 using 3 μg PEI/1 μg DNA and one tenth medium volume OptiMEM.
Proteins were extracted from Neuro-2a cells 48 hours after transfection. Cells were briefly washed in ice cold PBS, scraped into 500 μl ice cold lysis buffer, passed through a 21G gauge needle 10 times and left to lyse on ice for 10 minutes. Lysed cells were cleared by centrifugation at maximum speed at 4° C. for five minutes and protein extracts were quantified using Bradford Reagent. 2 mg of total protein in 1 ml lysis buffer was incubated with 30 μl anti-FLAG® M2 affinity resin slurry (Sigma A2220) (which had been blocked overnight with 1% BSA in IP lysis buffer) for 2 hours at 4° C. on a rotating wheel. […] 30 μg total protein and 15 μl captured protein complexes were resolved by SDS-PAGE, electroblotted onto nitrocellulose membrane and probed using FLAG, NXF1 clone 53H8 [1:2000] (Abcam ab50609) and […]-tubulin.

Molecule	life extension [1]	effect on RAN translation / production of sense and antisense DPRs [2]	co-immunoprecipitation of endogenous NXF1 (NXF1)
Nc1nc2ccc(OC(F)(F)F)cc2s1 [riluzole]	around 6 months		
B1		little effect	specifically immunoprecipitated
B2		no	specifically immunoprecipitated
